Drawing on publication PMC2648964, “Molecular Basis for the Sorting of the SNARE VAMP7 into Endocytic Clathrin-Coated Vesicles by the ArfGAP Hrb” (Cell, 2008), this text covers Kd for two molecules.

What all share (assay): ITC; VAMP7 longin domain (1.4 ml, 0.15-0.2 mM) in the cell, Hrb at 1.5-2 mM titrated in 30-40 injections of 4-8 μl; all GST tags removed
Conditions in all cases: both partners purified
For orientation: In ITC the heat of successive injections is recorded.

The target in one assay is T1, Hrb(1-176) His6 (human, UniProt P52594-1 1-176).
T1 construct: human Hrb, residues 1-176; also called residues 1–176 of Hrb; source: E. coli BL21(DE3)/pLysS, purified (Ni-NTA-agarose); not shown: His6, C-terminal, kept
T1 sequence (looked up): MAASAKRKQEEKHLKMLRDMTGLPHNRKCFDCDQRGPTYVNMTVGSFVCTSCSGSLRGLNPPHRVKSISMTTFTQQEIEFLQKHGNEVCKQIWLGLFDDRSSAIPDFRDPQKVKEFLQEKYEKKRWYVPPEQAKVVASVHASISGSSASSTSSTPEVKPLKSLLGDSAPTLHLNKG

The target of assay [1] is T2, Hrb(1-176) His6 L160S/L163S (human, UniProt P52594-1 1-176, L160S | L163S).
T2 construct: human Hrb, residues 1-176, with L160S and L163S; source: E. coli BL21(DE3)/pLysS, purified (Ni-NTA-agarose); not shown: His6, C-terminal, kept
T2 sequence (looked up): T1 sequence (looked up) with L160S, L163S

Assay [2] has as its target T3, Hrb(1-176) His6 L163P/L164P (human, UniProt P52594-1 1-176, L163P | L164P).
T3 construct: human Hrb, residues 1-176, with L163P and L164P; source: E. coli BL21(DE3)/pLysS, purified (Ni-NTA-agarose); not shown: His6, C-terminal, kept
T3 sequence (looked up): T1 sequence (looked up) with L163P, L164P

Assay [3] addresses T4, Hrb(1-176) His6 L171S/L173S (human, UniProt P52594-1 1-176, L171S | L173S).
T4 construct: human Hrb, residues 1-176, with L171S and L173S; source: E. coli BL21(DE3)/pLysS, purified (Ni-NTA-agarose); not shown: His6, C-terminal, kept
T4 sequence (looked up): T1 sequence (looked up) with L171S, L173S

Where a chain is given by its changes, count along the chain named. Names and notes keep the numbering of the source.

B1: VAMP7 longin domain L43S/Y45S, GST tag removed (domain or fragment, mouse, UniProt P70280 1-120, looked up)
chain: MAILFAVVARGTTILAKHAWCGGNFLEVTEQILAKIPSENNKSTSSHGNYLFHYICQDRIVYLCITDDDFERSRAFSFLNEVKKRFQTTYGSRAQTALPYAMNSEFSSVLAAQLKHHSEN
notes: VAMP7 longin domain with L43S and Y45S; limits as the parent GST-VAMP7 longin domain (mouse 1-120 by the antibody paragraph); Used in ITC; source: E. coli BL21(DE3)/pLysS, purified, GST removed with thrombin; not shown: GST, N-terminal, cleaved
Regarding B1, the Kd (usually a measure of binding affinity in units of concentration) with Hrb(1-176) His6 was above 300 µM.

B2: VAMP7 longin domain, GST tag removed (domain or fragment, mouse, UniProt P70280 1-120, looked up)
chain: B1 chain with S43L, S45Y
notes: VAMP7 longin domain; GST-VAMP7 longin domain is described as mouse VAMP7 amino acids 1-120 in the antibody paragraph; also called VAMP7 LD; source: E. coli BL21(DE3)/pLysS, purified, GST removed with thrombin; not shown: GST, N-terminal, cleaved
Take B2: the Kd in the assay with Hrb(1-176) His6 is 10.5 µM; in assay [1], above 300 µM; in assay [2] it was above 300 µM; in assay [3], above 300 µM.
